Laboratory results from US20240324599A1, “PESTICIDAL ENZYMES FOR USE ON NEMATODES, INSECTS, AND MOLLUSKS” (priority 2023, published 2024).

Legend:
Format in all cases: in vivo
[1] = system: soybean; experiment: Field trial: Geobacillus stearothermophilus esterase soybean seed treatment, yield; details: text to Table 58; 0.5 fl oz/unit
Excerpt: 0.5 fl oz/unit of Esterase (carboxylesterase) from Geobacillus/Bacillus stearothermophilus (SEQ ID NO:252) was coated onto soybean seeds treated with Evergol Energy (prothioconazole, metalaxyl, and penflufen fungicides) at 1 fl oz/cwt, Alias 4F (imidacloprid, insecticide) at 1.25 fl oz/unit, Sensient Red (colorant) at 0.5 fl oz/cwt, and Seedwork 4037L polymer at 1.5 fl oz/cwt. A control treatment without esterase enzyme was also created. The seed treated with esterase and control seed was planted in replicated trials distributed across 6 replicated plots with 4 replicates of 60 ft2 each at each site.

[2] = system: Garden snails (Cornu aspersum); experiment: Antifeedant and molluscicide bioassay (artificial diet): consumption, survival, weight gain; details: n = 12, 12 days
Protocol: Two-week old garden snails (Cornu aspersum) and full-size black gloss snails (Zonitoides nitidus) were maintained in a semi-darkened tank at 68-70° F. at high humidity, provided with a wet sponge in a petri dish. Snails were transferred to fresh tank every 2-3 days, and they were feed ad libitum with cucumber slices supplemented with calcium carbonate tablets. Individuals were reared in the laboratory for at least a week to fully acclimate to laboratory conditions prior to testing. The individuals ranged between 3 weeks to 2 months old at the time of bioassay.
Filter-sterilized recombinant enzymes including proteases and lipases were prepared as indicated in Example 25. Corresponding controls (e.g., buffer, fermentation of non-recombinant strain, water) were be prepared accordingly. Enzymes were dried by mixing them with Polyvinylpyrrolidone K30 (Thermo Sci Chem, Cat #227545000) at a ratio of 60 mg PVP per mL of enzymes, dispersed on a petri dish and allowed to dry in a bio-safety hood for 24-48 hours.
The treatments were prepared by mixing 0.4 g of dry enzyme and 1 gram of artificial diet mix. The artificial diet mix consisted of flour supplemented with 30 mg sucrose per gram of flour. Control diet contained 0.4 g of PVP and 1 g of artificial diet mix.
12 snails were randomly assigned to each treatment, labeled with permanent marker on the top of the shell for identification, and their weight (mg) was recorded before treatment. Then snails were transferred to dry plastic containers containing two petri dishes. Humidity was maintained with a folded and soaked light duty tissue paper in one petri dish. 1 g of treatment was provided as a thin layer on the other petri dish and was replaced every other day. At the time of treatment replacement, treatment consumption, weight, and mortality were recorded.

[3] = system: Fall armyworm (Spodoptera frugiperda); experiment: Diet-surface overlay (DSO) bioassay; details: Table 46
Protocol: Diet-surface overlay bioassays are conducted with artificial diet mixes without antibiotics in 1.5 cm^2 cell bioassay trays(s). Artificial diets are commercially available from Southland Products Inc. Diets were prepared by dispersing 0.5 mL of molten diet to each 1.5 cm^2 cell. After solidification, 0.1 mL enzyme treatments were dispersed on top of diet in each cell and the tray was gently rocked in an orbital shaker to spread the liquid uniformly over the diet surface. Trays were placed under clean airflow until the surface of each cell was uniformly dried. One or two 16-cell sections were used per treatment (the number in larvae treated was 16 or 32).
One healthy first instar larva was placed into each treatment cell, each 16-cell section was covered with a re-sealable lid and incubated at 27° C. and light-dark period of 16:8 hrs. After 7 days, and according to the species, the number of individuals in the following developmental categories was recorded.
Negative/untreated controls were treated with filtered water and positive controls were treated with lethal doses of Bacillus thuringiensis subsp. Kurstaki (Btk) spores at 1000 ppm.

[4] = system: corn; experiment: Greenhouse trial: Rhizopus oryzae Esterase corn seed treatment, plant height
Protocol: Rhizopus oryzae Esterase (carboxylesterase, SEQ ID NO:253) was coated onto 6049 V2 hybrid corn seeds. A water only control treatment without esterase enzyme was also created. The seed treated with esterase and control seed was planted in replicated greenhouse trials on promix soil with a fluctuating day/night temperature of 78° F./75° F., and 13 hours of light daily. Plant heights were measured on day 10 for each plant emerged from the soil.

B1: Geobacillus stearothermophilus (a.k.a B. Stearothermophilus) Esterase (protein, listed as Bacillus stearothermophilus, listed as Geobacillus stearothermophilus)
chain: MKIVPPKPFFFEAGERAVLLLHGFTGNSADVRMLGRFLESKGYTCHAPIYKGHGVPPEELVHTGPDDWWQDVMNGYEFLKNKGYEKIAVAGLSLGGVFSLKLGYTVPIEGIVTMCAPMYIKSEETMYEGVLEYAREYKKREGKSEEQIEQEMEKFKQTPMKTLKALQELIADVRDHLDLIYAPTFVVQARHDEMINPDSANIIYNEIESPVKQIKWYEQSGHVITLDQEKDQLHEDIYAFLESLDW
yield versus base seed treatment package, in words [1]: increased the yield

B2: PpII Lipase: free lipase from porcine pancreas Type II (PpII) (protein, UniProt P00591 1-450, looked up)
Pancreatic triacylglycerol …: SEVCFPRLGCFSDDAPWAGIVQRPLKILPWSPKDVDTRFLLYTNQNQNNYQELVADPSTITNSNFRMDRKTRFIIHGFIDKGEEDWLSNICKNLFKVESVNCICVDWKGGSRTGYTQASQNIRIVGAEVAYFVEVLKSSLGYSPSNVHVIGHSLGSHAAGEAGRRTNGTIERITGLDPAEPCFQGTPELVRLDPSDAKFVDVIHTDAAPIIPNLGFGMSQTVGHLDFFPNGGKQMPGCQKNILSQIVDIDGIWEGTRDFVACNHLRSYKYYADSILNPDGFAGFPCDSYNVFTANKCFPCPSEGCPQMGHYADRFPGKTNGVSQVFYLNTGDASNFARWRYKVSVTLSGKKVTGHILVSLFGNEGNSRQYEIYKGTLQPDNTHSDEFDSDVEVGDLQKVKFIWYNNNVINPTLPRVGASKITVERNDGKVYDFCSQETVREEVLLTLNPC
Dead Snails ([2]; Table 62, lipases, garden snail, control diet 0): 0 | Diet consumption ([2]; Table 62, lipases, garden snail, control diet 1.16): 0.82 gr | food consumption, in words ([2]; text to Table 62, lipases): consistent reduction in food consumption | Dead Larva ([3]; individuals of n = 32 after 7 days, U/mL diet: Bc 3.8, Pf 5.2, PpII 0.4, Rm 2.8, Lipase nd, water 2): 0 | Larva Stage I ([3]; n = 32, doses as E92, water 0): 2 | Larva Stage II ([3]; n = 32, doses as E92, water 0): 5 | Larva Stage III ([3]; n = 32, doses as E92, water 0): 15 | Larva Stage IV ([3]; n = 32, doses as E92, water 30): 10

B3: Rhizopus oryzae Esterase (protein, listed as Rhizopus oryzae)
chain: SDGGKVVAATTAQIQEFTKYAGIAATAYCRSVVPGNKWDCVQCQKWVPDGKIITTFTSLLSDTNGYVLRSDKQKTIYLVFRGTNSFRSAITDIVFNFSDYKPVKGAKVHAGFLSSYEQVVNDYFPVVQEQLTANPTYKVIVTGHSLGGAQALLAGMDLYQREPRLSPKNLSIFTVGGPRVGNPTFAYYVESTGIPFQRTAHKRDIVPHVPPQSFGFLHPGVESWIKSGTSNVQICTSEIETKDCSNSIVPFTSILDHLSYFDINEGSCL
modifications: Rhizopus cf. oryzae
Height as % of Control ([4]; Table 60, corn seed treatment 0.5 fl oz/unit, plant height on day 10, water control 100%): 103.7% | growth rate of corn, in words ([4]; text to Table 60): increase the growth rate
